The data set deals with the molecule itself. Nature of the data set: dynamic light scattering.

B1: recombinant human αB-crystallin (natural protein, UniProt P02511 1-175, looked up)
chain: MDIAIHHPWIRRPFFPFHSPSRLFDQFFGEHLLESDLFPTSTSLSPFYLRPPSFLRAPSWFDTGLSEMRLEKDRFSVNLDVKHFSPEELKVKVLGDVIEVHGKHEERQDEHGFISREFHRKYRIPADVDPLTITSSLSSDGVLTVNGPRKQVSGPERTIPITREEKPAVTAAPKK
As for B1, the binding result is listed as “binds”.

The values are drawn from paper PMC6662615 (Biochemistry, 2019).
